Numbering of substitutions follows the chain as printed.
B1: cc01 CS1 ADBD (SEQ ID NO: 780) (designed binder)
chain: MGSWVEFEARLSAIYERLEALGGSEAELAAFEKEIAAFESELQAYKGKGNPEVEKLRRHAAGIRSNLQAYRHN
B2: cc02 CS1 ADBD (SEQ ID NO: 781) (designed binder)
chain: B1 chain with E8F, A9V, S12D, Y15W, K55T, R58F, S65Q, N66K
B3: cc10 CS1 ADBD (SEQ ID NO: 789) (designed binder)
chain: B1 chain with V5M, S12E, Y15W, E16D, K55S, R58F, S65Q, N66H
B4: D-domain SEQ ID NO: 341 (designed binder)
chain: MGSWIEFHERLWAIEDRLWALGGSEAELAAFEKEIAAFESELQAYKGKGNPEVESLREMAASIRHGLQAYRHN
B5: D-domain SEQ ID NO: 342 (designed binder)
chain: B4 chain with I5F, H8Y, E15D, S55W, M59E, H65S, G66S
B6: D-domain SEQ ID NO: 343 (designed binder)
chain: MGSWFEFWDRLEAIDDRLFALGGSEAELAAFEKEIAAFESELQAYKGKGNPEVESLRYNAAEIRKELQAYRHN
B7: D-domain SEQ ID NO: 345 (designed binder)
chain: B6 chain with F5Y, D9I, E54D, S55I, Y58D, N59F, E62D, K65T
B8: D-domain SEQ ID NO: 346 (designed binder)
chain: B6 chain with F5H, F19Y, S55F, Y58E, N59E, E62Y, K65E, E66L
B9: D-domain SEQ ID NO: 348 (designed binder)
chain: B6 chain with F5W, W8D, E12F, D16T, F19M, Y58E, N59W, E62T, K65M
B10: D-domain SEQ ID NO: 347 (designed binder)
chain: B6 chain with F5E, E12F, F19W, S55T, Y58N, N59E, K65M, E66A
B11: D-domain SEQ ID NO: 344 (designed binder)
chain: B6 chain with F5H, D9S, E12D, S55Y, Y58G, N59A, E62D, K65A
B12: D-domain SEQ ID NO: 340 (designed binder)
chain: MGSWIEFNMRVLAIEDRLWALGGSEAELAAFEKEIAAFESELQAYKGKGNPEVESLRYEACLDPWSSAAYRHN
B13: HER2-binding D domain SEQ ID NO: 832 (designed binder)
chain: MGSWWEFQVRLSAIEYRLTALGGSEAELAAFEKEIAAFESELQAYKGKGNPEVEELRQKAARIRSLLQAYRHN
B14: HER2-binding D domain SEQ ID NO: 838 (designed binder)
chain: B13 chain with Q8N, E15R, T19L, E55D, Q58A, K59S, R62Q, S65A, L66M
B15: HER2-binding D domain SEQ ID NO: 835 (designed binder)
chain: MGSWYEFDIRLEAIKYRLSALGGSEAELAAFEKEIAAFESELQAYKGKGNPEVEYLRKKAAVIRSMLQAYRHN
B16: HER2-binding D domain SEQ ID NO: 836 (designed binder)
chain: B15 chain with Y5W, D8R, K15W, S19H, Y55D, K58I, K59F, V62N, M66K
B17: HER2-binding D domain SEQ ID NO: 839 (designed binder)
chain: MGSWWEFNMRLSAIKYRLYALGGSEAELAAFEKEIAAFESELQAYKGKGNPEVEILRRLAADIRERLQAYRHN
notes: also called eb10
B18: HER2-binding D domain SEQ ID NO: 833 (designed binder)
chain: MGSWWEFNIRLHAIDYRLKALGGSEAELAAFEKEIAAFESELQAYKGKGNPEVELLREKAAQIRAQLQAYRHN
notes: also called eb09
B19: HER2-binding D domain SEQ ID NO: 837 (designed binder)
chain: B18 chain with I9V, H12Q, D15K, K19S, L55D, E58K, K59T, Q62H, A65W
B20: HER2-binding D domain SEQ ID NO: 840 (designed binder)
chain: B18 chain with N8H, H12R, D15K, K19Y, L55D, E58I, K59L, Q62E
B21: HER2-binding D domain SEQ ID NO: 834 (designed binder)
chain: B18 chain with N8R, I9V, H12E, L55Y, E58M, Q62T, Q66I
notes: also called eb06

target: T1, extracellular domain of human CS1 protein (human, UniProt Q9NQ25 23-226); assay: phage display panning
T1 construct: Panning target; also called CS1 mature ECD
T1 sequence: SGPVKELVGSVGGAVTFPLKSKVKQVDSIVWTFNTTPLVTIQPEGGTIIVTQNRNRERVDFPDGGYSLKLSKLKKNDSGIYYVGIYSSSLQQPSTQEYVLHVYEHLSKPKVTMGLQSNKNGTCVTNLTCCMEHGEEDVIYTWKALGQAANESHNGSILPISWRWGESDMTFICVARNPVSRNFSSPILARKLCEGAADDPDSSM

| Binder | binding result |
| --- | --- |
| B1 | binds |
| B2 | binds |
| B3 | binds |

target: T2, CD123 (Homo sapiens (Human), UniProt P26951 19-305, limits assumed); assay: ELISA, format not described; parameters: unit not given here
T2 sequence: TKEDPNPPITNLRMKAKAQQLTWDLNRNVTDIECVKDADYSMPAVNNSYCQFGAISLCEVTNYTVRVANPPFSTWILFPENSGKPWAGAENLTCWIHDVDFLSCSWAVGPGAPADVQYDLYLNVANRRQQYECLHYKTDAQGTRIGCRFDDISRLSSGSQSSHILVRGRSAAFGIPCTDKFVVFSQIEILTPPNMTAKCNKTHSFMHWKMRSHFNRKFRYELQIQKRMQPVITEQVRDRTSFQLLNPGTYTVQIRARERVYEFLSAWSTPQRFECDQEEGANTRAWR

| Binder | ELISA_avg |
| --- | --- |
| B4 | 3.4 |
| B5 | 6 |
| B6 | 4.9 |
| B7 | 10.4 |
| B8 | 10.6 |
| B9 | 3.5 |
| B10 | 3.1 |
| B11 | 3.8 |
| B12 | 3.2 |

target: T3, HER2 (human, UniProt P04626 23-652); assay: ELISA, format not described; parameters: unit not given here
T3 construct: The ELISA is not described; also called ERBB2; CD340

| Binder | ELISA_avg |
| --- | --- |
| B13 | 9.61 |
| B14 | 6.73 |
| B15 | 5.35 |
| B16 | 8.04 |
| B17 | 3.08 |
| B18 | 9.75 |
| B19 | 5.23 |
| B20 | 14.8 |
| B21 | 6.82 |

Reference: US20250026849A1 (ARCELLX, published 2025)
